T1: recombinant RNase H2 complex (hRNASEH2BCA) (human, UniProt Q5TBB1 1-312; Q8TDP1 1-164; O75792 1-299)
T1 construct: RNASEH2B, human, non-catalytic accessory subunit of RNase H2; RNASEH2C, human, non-catalytic accessory subunit of RNase H2; RNASEH2A, human, catalytic subunit of RNase H2; Heterotrimer formed beforehand by co-expression; also called RH2; source: E. coli, purified (GST pulldown, then AKTA FPLC); copies: + +
T1 sequence (looked up) 1: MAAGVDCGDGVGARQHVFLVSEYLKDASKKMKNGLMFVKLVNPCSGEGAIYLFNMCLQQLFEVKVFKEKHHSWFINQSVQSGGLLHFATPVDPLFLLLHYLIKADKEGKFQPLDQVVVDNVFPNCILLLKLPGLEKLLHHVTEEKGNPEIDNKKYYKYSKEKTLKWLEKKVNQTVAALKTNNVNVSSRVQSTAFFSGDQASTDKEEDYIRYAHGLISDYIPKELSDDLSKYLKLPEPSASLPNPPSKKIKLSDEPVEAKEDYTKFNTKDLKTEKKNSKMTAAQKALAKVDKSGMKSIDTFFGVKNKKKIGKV
T1 sequence (looked up) 2: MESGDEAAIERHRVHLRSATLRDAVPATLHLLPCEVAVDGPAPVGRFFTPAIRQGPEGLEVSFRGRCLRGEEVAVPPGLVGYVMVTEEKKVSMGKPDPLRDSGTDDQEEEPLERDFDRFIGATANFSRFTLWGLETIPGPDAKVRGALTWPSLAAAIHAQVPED
T1 sequence (looked up) 3: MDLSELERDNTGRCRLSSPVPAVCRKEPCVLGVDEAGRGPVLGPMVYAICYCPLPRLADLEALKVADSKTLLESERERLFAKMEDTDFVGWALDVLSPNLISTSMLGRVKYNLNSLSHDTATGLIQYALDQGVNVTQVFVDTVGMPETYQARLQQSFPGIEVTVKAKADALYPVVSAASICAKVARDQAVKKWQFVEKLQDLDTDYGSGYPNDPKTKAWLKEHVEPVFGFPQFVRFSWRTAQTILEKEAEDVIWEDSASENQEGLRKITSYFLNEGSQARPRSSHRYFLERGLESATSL


Assays:
[1] = target: T1, recombinant RNase H2 complex …; assay: co-IP; recombinant RNase H2 complex and RTF2 (0.5, 1, 2, 4 pmol) from E. coli mixed 2 hr at 4 °C in 20 mM HEPES pH 7.5, 1 mM DTT, 0.01% NP-40, 5% glycerol, 0.1 mg/mL BSA, 50 mM NaCl, benzonase; NaCl raised to 150 mM; Dynabeads 1 hr at 4 °C; immunoblot; conditions: both partners purified
[2] = target: T1, recombinant RNase H2 complex …; assay: co-IP; recombinant GFP-tagged RTF2 (0.5, 1, 2, 4 pmol) and RNase H2 complex from E. coli, immunoprecipitation as for untagged RTF2 (20 mM HEPES pH 7.5, 150 mM NaCl final, benzonase, Dynabeads); immunoblot; conditions: both partners purified

Row | binding result [1] | binding result [2] | Binder
1 | binds | – | recombinant hRTF2 (natural protein, human, UniProt Q9BY42 1-306, looked up, Replication Termination Factor 2 (RTF2), human (hRTF2); source: E. coli, purified (IMAC, then AKTA FPLC)) MGCDGGTIPKRHELVKGPKKVEKVDKDAELVAQWNYCTLSQEILRRPIVACELGRLYNKDAVIEFLLDKSAEKALGKAASHIKSIKNVTELKLSDNPAWEGDKGNTKGDKHDDLQRARFICPVVGLEMNGRHRFCFLRCCGCVFSERALKEIKAEVCHTCGAAFQEDDVIMLNGTKEDVDVLKTRMEERRLRAKLEKKTKKPKAAESVSKPDVSEEAPGPSKVKTGKPEEASLDSREKKTNLAPKSTAMNESSSGKAGKPPCGATKRSIADSEESEAYKSLFTTHSSAKRSKEESAHWVTHTSYCF
2 | – | binds | recombinant GFP-tagged RTF2 (natural protein, human, UniProt Q9BY42 1-306, looked up, Replication Termination Factor 2 (RTF2), human (hRTF2 in the methods on recombinant proteins); also called GFP-RTF2; source: E. coli, purified) MGCDGGTIPKRHELVKGPKKVEKVDKDAELVAQWNYCTLSQEILRRPIVACELGRLYNKDAVIEFLLDKSAEKALGKAASHIKSIKNVTELKLSDNPAWEGDKGNTKGDKHDDLQRARFICPVVGLEMNGRHRFCFLRCCGCVFSERALKEIKAEVCHTCGAAFQEDDVIMLNGTKEDVDVLKTRMEERRLRAKLEKKTKKPKAAESVSKPDVSEEAPGPSKVKTGKPEEASLDSREKKTNLAPKSTAMNESSSGKAGKPPCGATKRSIADSEESEAYKSLFTTHSSAKRSKEESAHWVTHTSYCF
